# Patent US20040260058A1 (published 2004)
# Legend:
# Assay in all cases: yeast two-hybrid screen; number of positive colonies with this interactor
# Matrilin-2 = Matrilin-2 (rat, UniProt A0A8I6GJR4 24-910)
# Description: (§1) A yeast two hybrid screen was carried out in order to identify A proteins which interact with L119. The entire coding region of the L119 cDNA was amplified in a polymerase chain reaction (PCR) and cloned into vector pPC86. The oligonucleotide primers having the sequences SEQ ID NO: 35 and 36 were used to do this. A 50 μl PCR mixture was prepared from 5 μl of 10× cloned Pfu buffer (Stratagene); 2 μl of DNTP mixture (5 mM; Cat. No. 1969064, Roche Diagnostics GmbH, Mannheim, Germany); in each case 2 μl of the abovementioned primer pairs (stock conc. 10 μM); 100 ng of rL119 cDNA template, 35 μl of H₂O and 1 μl of Pfu turbo DNA polymerase (Stratagene), and, after it had been incubated at 94° C. for 3 minutes, 28 PCR cycles were then carried out in accordance with the following temperature programm: 1 min of primer annealing at 56° C., 1 min of strand extension at 72° C. and 1 min of DNA double-strand melting at 94° C., together with a concluding extension step of 7 min at 72° C. The resulting PCR products were gel-purified, cut with the restriction enzymes SalI and NotI and cloned into the corresponding restriction cleavage sites of pPC86. The DNA construct obtained in this way encodes a protein in which the Gal4 DNA-binding domain is fused to the L119 protein. The yeast strain Y190 (Flick JS and Johnston M (1990) Mol. Cell. Biol. 10, 4757-4769; Harper J et al. (1993) Cell 75, 805-816) (from Life Technologies) was transformed with this construct. The resulting yeast strain was transformed with a rat brain cDNA library (obtained from cortex and hippocampus RNA, following maximal electroconvulsive shock (MECS) (Antony Lanahan and Paul Worley)) in the vector pPC86 (from Life Technologies), and 3×10⁶ transformants were plated out. After 3 to 5 days of growth at 30° C., colonies having a diameter of more than 2 mm were isolated and subjected to X-Gal staining (protocol: ProQuest™ Two-Hybrid System, Cat. Series 10835, Life Technologies) . […] The respective cDNA from these colonies was amplified using vector-specific primers and the-amplicon was sequenced (protocol: ProQuest™ Two-Hybrid System, Cat. Series 10835, Life Technologies). The sequence analysis gave 8 different putative interacting proteins (Table 1): […]
# Nel = Nel (rat, UniProt Q62918)
# Description: as §1
# Notch 4 = Notch 4 (rat)
# Description: as §1
# Laminin alpha-4 chain = Laminin alpha-4 chain (rat)
# Description: as §1
# Matrilin-2, sequence (A0A8I6GJR4 entry or part of it): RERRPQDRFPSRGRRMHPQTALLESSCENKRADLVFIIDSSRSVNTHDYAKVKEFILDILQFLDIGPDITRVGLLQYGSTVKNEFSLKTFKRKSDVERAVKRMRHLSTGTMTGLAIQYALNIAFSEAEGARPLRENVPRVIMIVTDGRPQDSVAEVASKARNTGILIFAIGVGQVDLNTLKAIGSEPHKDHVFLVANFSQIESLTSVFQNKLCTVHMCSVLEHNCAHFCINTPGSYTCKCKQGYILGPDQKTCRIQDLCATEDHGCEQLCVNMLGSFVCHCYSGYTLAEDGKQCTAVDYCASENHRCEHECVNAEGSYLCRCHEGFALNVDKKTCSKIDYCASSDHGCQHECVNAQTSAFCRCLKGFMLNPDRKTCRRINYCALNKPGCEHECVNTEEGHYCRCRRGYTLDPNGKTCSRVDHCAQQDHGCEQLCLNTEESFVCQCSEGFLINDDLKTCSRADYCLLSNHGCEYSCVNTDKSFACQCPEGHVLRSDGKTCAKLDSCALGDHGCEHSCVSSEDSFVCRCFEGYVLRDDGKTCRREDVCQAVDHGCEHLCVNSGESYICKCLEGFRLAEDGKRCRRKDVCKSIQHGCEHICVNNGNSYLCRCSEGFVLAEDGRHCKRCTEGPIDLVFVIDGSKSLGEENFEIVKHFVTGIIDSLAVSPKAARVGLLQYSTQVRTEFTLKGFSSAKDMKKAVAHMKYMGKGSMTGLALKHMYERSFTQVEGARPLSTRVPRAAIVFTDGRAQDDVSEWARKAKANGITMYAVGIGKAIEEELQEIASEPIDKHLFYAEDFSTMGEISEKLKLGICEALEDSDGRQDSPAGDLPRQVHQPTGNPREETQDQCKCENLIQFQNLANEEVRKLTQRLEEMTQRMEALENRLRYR
# Nel, sequence (Q62918 whole entry): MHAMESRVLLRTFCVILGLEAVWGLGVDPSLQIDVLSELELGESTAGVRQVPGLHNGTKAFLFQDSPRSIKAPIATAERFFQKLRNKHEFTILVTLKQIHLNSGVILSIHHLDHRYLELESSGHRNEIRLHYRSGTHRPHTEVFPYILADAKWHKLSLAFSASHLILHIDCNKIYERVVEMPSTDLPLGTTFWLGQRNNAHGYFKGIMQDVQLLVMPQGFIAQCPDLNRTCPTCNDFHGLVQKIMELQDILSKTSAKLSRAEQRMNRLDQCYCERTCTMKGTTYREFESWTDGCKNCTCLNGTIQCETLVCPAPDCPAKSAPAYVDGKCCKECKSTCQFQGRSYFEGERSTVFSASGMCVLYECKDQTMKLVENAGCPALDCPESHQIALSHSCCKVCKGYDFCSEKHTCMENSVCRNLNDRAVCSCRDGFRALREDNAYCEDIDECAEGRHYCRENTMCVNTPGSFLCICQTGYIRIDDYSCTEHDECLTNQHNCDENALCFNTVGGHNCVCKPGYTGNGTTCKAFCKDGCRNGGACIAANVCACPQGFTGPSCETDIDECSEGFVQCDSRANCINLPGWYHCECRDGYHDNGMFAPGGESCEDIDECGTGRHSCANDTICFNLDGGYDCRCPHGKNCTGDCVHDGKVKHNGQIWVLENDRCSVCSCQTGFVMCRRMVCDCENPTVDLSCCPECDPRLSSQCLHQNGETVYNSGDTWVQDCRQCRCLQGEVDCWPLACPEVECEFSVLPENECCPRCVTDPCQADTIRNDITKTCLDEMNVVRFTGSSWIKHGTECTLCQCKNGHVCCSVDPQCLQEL
binder,measurement,setting,value
"Gal4 DNA-binding domain fused to the L119 protein (yeast two-hybrid bait) (other, also called L119 bait) MKLLSSIEQACDICRLKKLKCSKEKPKCAKCLKNNWECRYSPKTKRSPLTRAHLTEVESRLERLEQLFLLIFPREDLDMILKMDSLQDIKALLTGLFVQDNVNKDAVTDRLASVETDMPLTLRQHRISATSSSEESSNKGQRQLTVSMEKWTAWEPQGADALRRFQGLLLDRRGRLHCQVLRLREVARRLERLRRRSLAANVAGSSLSAAGALAAIVGLSLSPVTLGASLVASAVGLGVATAGGAVTITSDLSLIFCNSREVRRVQEIAATCQDQMRELLSCLEFFCQWQGRGDRQLLQSGRDASMALYNSVYFIVFFGSRGFLIPRRAEGATKVSQAVLKAKIQKLSESLESCTGALDELSEQLESRVQLCTKAGRGHNLRNSPDLDAALFF",# Frequency,Matrilin-2,1
same,# Frequency,Nel,5
same,# Frequency,Notch 4,3
same,# Frequency,Laminin alpha-4 chain,1
